The target of series [1] is ParBΔ121–183 of Pseudomonas aeruginosa (Pseudomonas aeruginosa). The experiment in a line: cross-linking; glutaraldehyde cross-linking in vitro of purified His6-tagged ParB proteins to determine the oligomeric state; WT ParB as the control.
Series [2] relates to ParB1-229 (Pseudomonas aeruginosa PAO1161). Kind of series: EMSA. The following applies: not given in the material. A general note: Mobility shift assays separate free from complexed probe on a gel.
The target in series [3] is wild-type ParB of Pseudomonas aeruginosa (Pseudomonas aeruginosa). Kind of series: cross-linking; glutaraldehyde cross-linking in vitro of purified His6-tagged ParB proteins to determine the oligomeric state; WT ParB as the control.

Broadly, the stoichiometry N is the number of molecules, sites or subunits per partner or assembly. Take “ParBΔ121–183 of Pseudomonas aeruginosa (natural protein)”: the stoichiometry N in series [1] worked out at 2. As to parS, the binding signal (fold of WT affinity (>5-fold decreased)) in series [2] was less than 0.2.

“wild-type ParB of Pseudomonas aeruginosa (natural protein)” showed a stoichiometry N in series [3] of 2.
